According to patent publication US11344606B2, “Parathyroid hormone fusion polypeptide” (University of Sheffield, priority 2017, dated 2022):

B1: 14A2c: PTHss-pp-PTH (1-34)-(g4s)4-PTHrExt-(g4s)4-GHbp, SEQ ID NO: 13 (protein)
chain: MIPAKDMAKVMIVMLAICFLTKSDGKSVKKRSVSEIQLMHNLGKHLNSMERVEWLRKKLQDVHNFGGGGSGGGGSGGGGSGGGGSDDVMTKEEQIFLLHRAQAQCEKRLKEVLQRPASIMESDKGWTSASTSGKPRKDKASGKLYPESEEDKEAPTGSRYRGRPCLPEWDHILCWPLGAPGEVVAVPCPDYIYDFNHKGHAYRRCDRNGSWELVPGHNRTWANYSECVKFLTNETREREVFDRLGGGGSGGGGSGGGGSGGGGSFSGSEATAAILSRAPWSLQSVNPGLKTNSSKEPKFTKCRSPERETFSCHWTDEVHHGTKNLGPIQLFYTRRNTQEWTQEWKECPDYVSAGENSCYFNSSFTSIAIPYCIKLTSNGGTVDEKCFSVDEIVQPDPPIALNWTLLNVSLTGIHADIQVRWEAPRNADIQKGWMVLEYELQYKEVNETKWKMMDPILTTSVPVYSLKVDKEYEVRVRSKQRNSGNYGEFSEVLYVTLPQMSQ
modifications: Fusion proteins
B2: 14A3b: GHss-PTH (1-34)-(g4s)4-PTHrExt-(g4s)4-GHbp, SEQ ID NO: 14 (protein)
chain: MATGSRTSLLLAFGLLCLPWLQEGSASVSEIQLMHNLGKHLNSMERVEWLRKKLQDVHNFGGGGSGGGGSGGGGSGGGGSDDVMTKEEQIFLLHRAQAQCEKRLKEVLQRPASIMESDKGWTSASTSGKPRKDKASGKLYPESEEDKEAPTGSRYRGRPCLPEWDHILCWPLGAPGEVVAVPCPDYIYDFNHKGHAYRRCDRNGSWELVPGHNRTWANYSECVKFLTNETREREVFDRLGGGGSGGGGSGGGGSGGGGSFSGSEATAAILSRAPWSLQSVNPGLKTNSSKEPKFTKCRSPERETFSCHWTDEVHHGTKNLGPIQLFYTRRNTQEWTQEWKECPDYVSAGENSCYFNSSFTSIAIPYCIKLTSNGGTVDEKCFSVDEIVQPDPPIALNWTLLNVSLTGIHADIQVRWEAPRNADIQKGWMVLEYELQYKEVNETKWKMMDPILTTSVPVYSLKVDKEYEVRVRSKQRNSGNYGEFSEVLYVTLPQMSQ
modifications: Fusion proteins

Experiments:
[1] = system: UMR-106 cells (PTH responsive cell line); test: In vitro induction of cAMP in UMR-106 cells (cAMP ELISA); format: cell-based, rat
Description: FIG. 3: In Vitro Bioactivity of 14A1 and 14A2 proteins. Purified proteins were tested for their ability to stimulate cAMP production from the PTH responsive cell line, UMR-106 (rat osteoblastic like cell line). Cells were stimulated for 15 minutes in the presence of test molecules and cAMP levels measured from cell lysates using a cAMP specific Elisa. […] Data is presented as pmol cAMP/ml+/−Standard deviation;
FIG. 29A: In vitro induction of cAMP. […] Cells were lysed and cAMP levels measured using an R & D systems Parameter cAMP Elisa. Data are presented as log pmol cAMP/ml±SD. […] Average of n=1 experiment carried out in duplicate.
Purified proteins were tested for their ability to stimulate cAMP production from the PTH responsive cell line, UMR-106 (rat osteoblastic like cell line). Cells were stimulated for 15 minutes in the presence of test molecules and cAMP levels measured from cell lysates using a cAMP specific Elisa (R&D systems).

[2] = system: UMR-106 cells; test: Dual Luciferase Reporter Assay for cAMP activity (pGL4.29/CRE/Luc2) in UMR-106 cells; format: cell-based, rat; conditions: FIG. 29D
Description: Cells were lysed and Luciferase activity measured using the Promega Dual Luciferase Assay kit. Data are presented as fold induction of control±SD. […] Average of triplicate values. […] Representative of 3 separate experiments.
Cells were lysed and Luciferase activity measured using the Promega Dual Luciferase Assay kit. Data are presented as fold induction of control±SD.
FIG. 29D: Determination of EC50 values for PTH & PTH fusions using the Dual Luciferase Reporter Assay.

[3] = 500 nM PTH fusion, 15 minutes at 37° C./5% CO2, FIG. 29A, n=1 experiment in duplicate

Molecule | cAMP levels (mean±SD) ([1]; 100 nM human PTH 1-34, 15 minutes at 37° C./5% CO2, FIG. 29A) [pmol cAMP/ml] | cAMP levels (mean±SD) [1, 3] [pmol cAMP/ml] | fold by which PTH is more potent than the fusion (EC50 ratio) [2] [fold]
CC[C@H](C)[C@H](NC(=O)[C@H](CCC(=O)O)NC(=O)[C@H](CO)NC(=O)[C@@H](NC(=O)[C@@H](N)CO)C(C)C)C(=O)N[C@@H](CCC(N)=O)C(=O)N[C@@H](CC(C)C)C(=O)N[C@@H](CCSC)C(=O)N[C@@H](Cc1c[nH]cn1)C(=O)N[C@@H](CC(N)=O)C(=O)N[C@@H](CC(C)C)C(=O)NCC(=O)N[C@@H](CCCCN)C(=O)N[C@@H](Cc1c[nH]cn1)C(=O)N[C@@H](CC(C)C)C(=O)N[C@@H](CC(N)=O)C(=O)N[C@@H](CO)C(=O)N[C@@H](CCSC)C(=O)N[C@@H](CCC(=O)O)C(=O)N[C@@H](CCCNC(=N)N)C(=O)N[C@H](C(=O)N[C@@H](CCC(=O)O)C(=O)N[C@@H](Cc1c[nH]c2ccccc12)C(=O)N[C@@H](CC(C)C)C(=O)N[C@@H](CCCNC(=N)N)C(=O)N[C@@H](CCCCN)C(=O)N[C@@H](CCCCN)C(=O)N[C@@H](CC(C)C)C(=O)N[C@@H](CCC(N)=O)C(=O)N[C@@H](CC(=O)O)C(=O)N[C@H](C(=O)N[C@@H](Cc1c[nH]cn1)C(=O)N[C@@H](CC(N)=O)C(=O)N[C@@H](Cc1ccccc1)C(=O)O)C(C)C)C(C)C [PTH 1-34, reference compound] | 2551±186 | – | –
B1 | – | 264±12 | ~18
B2 | – | 25±0.95 | 28
